Measured values: patent publication US12508311B2, “Fusion protein, and preparation method and use thereof” (SUN YAT-SEN UNIVERSITY, priority 2021, dated 2025)
No end group written: not given here.

How the values were obtained:
[1] = tested on: normal human intestinal epithelial cells FHC; test: Effect of gefitinib on normal cells (FHC control in CCK-8 / clone formation); assay type: cell-based; details: gefitinib 4 μM
Source text: • (1) The colorectal cancer cells HT29 (KRas wt) and HCT116 (KRas G13D) in the logarithmic growth phase and the normal human intestinal epithelial cells FHC were digested with pancreatin and then prepared into a single cell suspension, and the cells were evenly inoculated in a 12-well plate by 500 cells per well. […] Cell culture solution was replaced every other 1-2 days, and the culture was stopped until cell clones (more than 50 cells were considered as one clone) were seen under a light microscope. • (3) After the supernatant of each group was discarded, the cells were washed twice with the PBS buffer solution, and dried in air. A proper amount of methanol stationary liquid was added into each well for cell fixation for 15 minutes, and residual stationary liquid in the well was washed off with PBS solution, and dried in air. A proper amount of crystal violet staining solution was added into each well for cell staining for 15 minutes, and residual staining solution in the well was washed off with PBS solution, and dried in air. The cell clones seen in the auxiliary wells of each group were counted under an inverted microscope and the number of the clones was calculated. • (4) Statistical analysis was carried out by using GraphPad Prism8 software, and one way anova was used to compare means of multiple groups. The difference was statistically significant when P<0.05.

[2] = tested on: tumors derived from the KRas wild-type cells HT29; test: In vivo Cy5 imaging of tumor targeting, HT29 tumors; design: species or system mice; details: tail vein 60 μM, 100 μL, 2.5 hours, compared with Cy5 single molecule
Source text: (§1) • (1) 10 female Balb/c nude mice aged 4 weeks to 5 weeks (Guangdong Laboratory Animal Center) were purchased, and then 500,000 HT29cells and 500,000 HCT116 cells were subcutaneously injected into left and right sides of the mice respectively. One week later, the mice were divided into two groups, with five mice in each group, which were the experimental group and the control group respectively. Raising and experiment of the mice were both carried out in the Laboratory Animal Center of Sun Yat-sen University, and all the operations were in accordance with the management method of laboratory animals of Sun Yat-sen University and complied with the animal ethical rules. • (2) The TKD-Cy5 molecule and the Cy5 single molecule constructed above were injected into the mice by tail vein at a concentration of 60 μM and a volume of 100 μL, wherein the TKD-Cy5 injection group was the experimental group and the Cy5 single molecule injection group was the control group. • (3) After 2.5 hours of tail vein injection, the mice were anesthetized with isoflurane. Cy5 imaging detection was conducted by using IVIS Lumina (PerkinElmer), with a fluorescence detection form of fluorescence. • (4) Experimental results were shown in FIG. 15.

[3] = tested on: tumors derived from the KRas mutant-type HCT116 cells; test: In vivo Cy5 imaging of tumor targeting, HCT116 tumors; design: species or system mice; details: tail vein 60 μM, 100 μL, 2.5 hours, compared with Cy5 single molecule
Source text: as §1

[4] = In vivo Cy5 imaging, other tissues and organs; design: species or system mice; details: tail vein 60 μM, 100 μL; 2.5 hours
Source text: as §1

Compound | toxic and side effects on normal cells [1] | aggregation in tumors (Cy5 imaging) [2] | aggregation in tumors (Cy5 imaging) [3] | targeting of other tissues and organs (Cy5 imaging) [4]
COc1cc2ncnc(Nc3ccc(F)c(Cl)c3)c2cc1OCCCN1CCOCC1 [gefitinib] | could not cause toxic and side effects on normal cells |  |  | 
TKD-Cy5: TKD molecules labeled with fluorescent dye Cy5 to form TKD-Cy5 covalent conjugates (TKDNNLLGRFELSG; also: Cy5 dye conjugate, site not given here; UniProt P0DMV8 450-463, looked up, fragment) |  | could aggregate in tumors | could aggregate in tumors | except bladder retention caused by metabolism in vivo as in the control group, TKD-Cy5 could not target other tissues and organs of the mice
